Experiment [1] concerns the target human recombinant adrenomedullin receptor (CRLR+RAMP3) (human).
For experiment [2] the target is unchanged. This is another data set of the same source.

“human ADM 22-52 (from UniProt P35318) (peptide)”: the IC50 (read off the curve), inhibition of cAMP stimulation by 5.63 nM hADM in experiment [1] was 200 nM. For the same substance, the IC50 (read off the curve), inhibition of cAMP stimulation by 0.67 nM mADM in experiment [2] was determined as 2000 nM.

Values taken from patent US12662530.
